The RNAGym collection of RNA variant scans (doi:10.1073/pnas.2313332121)
This sample holds only a part of the variants without activity.

B1: TPR 5TU (parent)
chain: GGAUCUUCUCGAUCUAACAAAAAAGACAAAUCUGCCACAAAGCUUGAGAGCAUCUUCGGAUGCAGAGGCGGCAGCCUUCGGUGGCGCGAUAGCGCCAACGUUCUCAACUAUGACACGCAAAACGCGUGCUCCGUUGAAUGGAGUUUAUCAUG

Variants of: B1
Test: polymerase ribozyme fitness, log enrichment relative to wild type (log ratio); higher = more active; in vitro selection for triplet polymerase activity
Summary of the method: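 Fitness measures genotype enrichment against wild-type enrichment on a logarithmic scale, with inverse-variance-weighted averaging of replicates. The logarithm is base 2, and genotypes were kept only with ≥10 input reads and ≥1 read per output in Illumina sequencing. The sequenced libraries came from one triplicate in vitro selection round, including frozen incubation at −7 °C, of PCR-built, transcribed mutant libraries of each subunit of a heterodimeric triplet polymerase ribozyme.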

Row | Variant | polymerase ribozyme fitness (log ratio)
1 | G86C U101G G124U G152A | -4.15
2 | A89C C96A A115G | -2.74
3 | U90G G140C | ≤ -4.2
4 | G86U G140U | -3.83
5 | G86C C114U | -3.9
6 | G88U G117U A142C | ≤ -4.2
7 | U90G C93G C99U | ≤ -4.2
8 | G86A G94C C132U G141C | ≤ -4.2
9 | C87U U151G | -3.96
10 | A89U C93G A147U | -2.7
11 | A89U A97G U134A G141C | -3.84
12 | G88U C116U A137C C149G | ≤ -4.2
13 | U90G A97G C114U U139G | ≤ -4.2
14 | C87G A89U | ≤ -4.2
15 | G88U U90C G133C A137C | ≤ -4.2
16 | C87G A106G | -4
17 | C87U G143U | -2.69
18 | G88C U101C A113C U139G | ≤ -4.2
19 | G86C G136A | -1.38
20 | U90C A147U | -3.58
21 | C87U C129A | -2.76
22 | C87U U101G A137C | -3.73
23 | A91C | ≤ -4.2
24 | A89U A91U C116U | ≤ -4.2

Row | Variant | polymerase ribozyme fitness (log ratio)
25 | G86U C108U | -4.14
26 | A89C C105U | 0.174
27 | C87A A115C | -4.1
28 | G88C A89C C95U | ≤ -4.2
29 | A89U C93U | -1.6
30 | A89U C93G | -3.68
31 | C87A U101G G124A A142C | -4.02
32 | G86U C149A | ≤ -4.2
33 | G86U A98U U111G C114U | -3.81
34 | G86U A89C A119C | -3.83
35 | C87U A89G | -3.41
36 | C87A G88A G117A A119G | ≤ -4.2
37 | C87G C105G | ≤ -4.2
38 | A89U G94C A98G A150G | -2.68
39 | A91C C125A U135C | ≤ -4.2
40 | C87U A120G A121C A147U U148C | -2.38
41 | A89C A142G | -1.52
42 | A91C A120G G126A | ≤ -4.2
43 | A89C C96U | -1.26
44 | G86U C93G A106G C132U U148A | -3.05
45 | G86U A120G C129A U145G | -4.13
46 | G88A A98U A106C | ≤ -4.2
47 | G88A G94A C99G C103G U104A A107G | ≤ -4.2
48 | C87U C125A C131U | 0.186

Row | Variant | polymerase ribozyme fitness (log ratio)
49 | G88A C149U | -4.04
50 | G86U A89G U145A | -3.28
51 | G86A C103G U134A | ≤ -4.2
52 | A89G G124U | -1.93
53 | G86U U101C C118U | -1.56
54 | G86U G88C A119C U127A U144G | ≤ -4.2
55 | A91C C96A G126A | ≤ -4.2
56 | G86U C105A | -2.68
57 | U90G C96A C131G | ≤ -4.2
58 | G86A C99G | -3.06
59 | C87U A98G A106G | -1.08
60 | U90C G92A C123A G126A A147C | ≤ -4.2
61 | G88U A106G | -3.91
62 | A89U G143U | -2.38
63 | A89C C96U A97C C99U | -3.09
64 | A89G C95G C132U | -3.36
65 | C87G U134A | ≤ -4.2
66 | G86U C93A G94A | -0.505
67 | C87A G100U | ≤ -4.2
68 | C87U A121U | -0.38
69 | A89U A121U | -0.72
70 | C87U G117C U144A | -1.27
71 | G88C A97U C103A G128C U134C U146C | ≤ -4.2
72 | U90A A106C A121U | ≤ -4.2

Row | Variant | polymerase ribozyme fitness (log ratio)
73 | A89U C93U C125U U127A A142U C149U | ≤ -4.2
74 | A91C A113G A138U | ≤ -4.2
75 | C87U C93G A121U C132A | ≤ -4.2
76 | G86A G141U | -1.07
77 | A89U G141C | -0.255
78 | A91C G112C U146A | ≤ -4.2
79 | G88A U127G C129U | ≤ -4.2
80 | C87G U111G | ≤ -4.2
81 | C87G G92C G126A | 0.48
82 | G86C C99G U109G C129A U148G | ≤ -4.2
83 | A89C A97U U101G A110G U134G G141A | ≤ -4.2
84 | C87G G94C C132G | ≤ -4.2
85 | C87U C96U C125U U144A | -2.68
86 | G88A C118A A120G | ≤ -4.2
87 | G88A G117U | -3.84
88 | C87U U90C U134A A138U G143A | ≤ -4.2
89 | A89U C95G A122G | -1.39
90 | C87A A107C | ≤ -4.2
91 | U90G G124C | ≤ -4.2
92 | C87A U144C | ≤ -4.2
93 | C87A U144G | -3.92
94 | C87U A107U | -3.34
95 | G86U G141A U146C | -1.62
96 | G88C C116U | -3.99

Row | Variant | polymerase ribozyme fitness (log ratio)
97 | G86A C103G C123U | -3.36
98 | G86U A119G | -1.54
99 | C87U U102C | -1.21
100 | A89G C99G U102A C123G U135C U145G | ≤ -4.2
101 | C87A A147G | ≤ -4.2
102 | C87A G141A | -3.89
103 | C87A G141U | -3.64
104 | U90G G94U A106U | ≤ -4.2
105 | G86U G88A A150C | ≤ -4.2
106 | C87U A122G | -1.83
107 | A89U U127C G136C A137C | -4.13
108 | C87A A91G | ≤ -4.2
109 | G86U U148A | -3.6
110 | G86C U101A U104G A107C G112C | ≤ -4.2
111 | G88U C108A | ≤ -4.2
112 | U90C U104A | -4.11
113 | C87U U145A | 0.0527
114 | C87U U145G | -1.51
115 | G88U C96U G124C G136U | ≤ -4.2
116 | G88A G124C | ≤ -4.2
117 | C87U G94C | -2.05
118 | A89G U146G C149G | -4.1
119 | G88C A115U | ≤ -4.2
120 | C87U C105G | -1.18

Row | Variant | polymerase ribozyme fitness (log ratio)
121 | C87G G92C C125U U127G U135G G141C | ≤ -4.2
122 | C87A A138C | ≤ -4.2
123 | G86U C87A C95A U104A | ≤ -4.2
124 | G88A A106G | -3.55
125 | G88A C96A C125U G126U | ≤ -4.2
126 | G86C U101G | -2.8
127 | C87U G117A | -0.356
128 | A89U U102G A122C | -3.7
129 | G86A A122G U148G | ≤ -4.2
130 | G86C G124A U144A | -2.44
131 | C87U A120G | -1.85
132 | C87U U109C | -3.46
133 | C87U A137C | -3.99
134 | C87U A137G | -1.81
135 | G86U C96A | -2.89
136 | C87U A106G U139C | -3.59
137 | A89G C131A | -2.5
138 | G88U A91G | ≤ -4.2
139 | A89U G92C G94U G141A | -3.94
140 | C87U U148A | -3.62
141 | C87A C105U A107U | ≤ -4.2
142 | C87G C105U U127C | -4.1
143 | G88U C149U | ≤ -4.2
144 | C87U A98C | -1.07

Row | Variant | polymerase ribozyme fitness (log ratio)
145 | C87U A98G | -1.67
146 | C87U C114G | -2.79
147 | U90C U127C | ≤ -4.2
148 | G86U G88U G94U A150U | ≤ -4.2
149 | G86A C105U | -0.138
150 | C87A A89U C129G | ≤ -4.2
151 | C87U G92C | -0.38
152 | G86U G92C | -2.75
153 | G86U G92U | -1.95
154 | G86U | -1.62
155 | G86C | -2.55
156 | G88A A110G A122U | -3.97
157 | C87A A107C U139C U151A | ≤ -4.2
158 | A91C A115C | ≤ -4.2
159 | A89G U111C | ≤ -4.2
160 | C87U G133U | -2.95
161 | G86A U90A | -3.67
162 | C87U C118U A147U | -0.411
163 | U90A | -4.07
164 | U90G | ≤ -4.2
165 | U90C | -2.87
166 | U90A C95U A121U U127A | ≤ -4.2
167 | G88A A91C | ≤ -4.2
